We go through 20 molecules from patent publication WO2022210830A1 (dated 2022).

Where a chain is given by its changes, count along the chain named. Like-named read-outs stand apart in the source and are kept apart here.

Experiment [1] deals with T1, SARS-CoV-2 spike protein (SARS-CoV-2, UniProt P0DTC2 14-1273).
The target in experiment [2] is T2, SARS-CoV-2 N-terminal domain (NTD) protein (SARS-CoV-2, UniProt P0DTC2 14-305). Put plainly: ELISA, immobilised NTD. (In general: An ELISA detects its analyte on a solid surface through an enzyme-linked reagent.)
The target in experiment [3] is T3, SARS-CoV Receptor binding domain (RBD) protein (SARS-CoV, UniProt P59594 306-527). The experiment can be described thus: ELISA, immobilised SARS-CoV RBD.
In experiment [4] the target is T2, SARS-CoV-2 N-terminal domain (NTD) …. Put plainly: ELISA, immobilised domain protein, 200 ng/ml antibody.
Experiment [5] has as its target SARS-CoV-2 spike protein, Wuhan type (WT), on pseudotype virus SARS-CoV-2 St19pv (SARS-CoV-2, UniProt P0DTC2 14-1273). The experiment can be described thus: cell-based or functional assay.
Experiment [6] addresses T1, SARS-CoV-2 spike protein. Put plainly: competition ELISA: antibody + biotin-ACE2 on immobilised spike.
In experiment [7] the target is T3, SARS-CoV Receptor binding domain (RBD) …. Put plainly: ELISA, immobilised domain protein, 200 ng/ml antibody.

B1: 1028-61L (antibody, V domains shown)
VH: EVQLVESGGGLVQPGGSLRLSCAASGIDVSSNYMSWVRQAPGKGLEWVSVIYSGGSTYYADAVRGRFTISRHNSKNTLYLQMNSLRAEDAAVYYCARDAQRYGMDVWGQGTTVTVSS
VL: SYVLTQPPSVSVAPGKTARITCGGNNIGSNTVHWYQQKPGQAPVLVIYYDSDRPSGIPERFSGSNSGNTATLTISRVEAGDEADYYCQLWDSSSDHVVFGGGTKLTVLG
As for B1, the half-inhibitory concentration (IC50) (usually the concentration that inhibits the measured activity by half) with SARS-CoV-2 spike protein [1] was roughly 0.25 µg/mL. In addition, the binding result in experiment [2] and in experiment [3] was “no binding (tested: 200 ng/ml)” throughout.

B2: 1028-29K (antibody, V domains shown)
VH: QVQLVQSGAEVKKPGASVKVSCKASGYTFTSYYMHWVRQAPGQGLEWMGIINPSGGSTSYAQKFQGRVTMTRDTSTSTVYMELSSLRSEDTAVYYCARDGTPDIVVVPAAPLDYWGQGTLVTVSS
VL: EIVLTQSPATLSLSPGERATLSCRASQSVSSYLAWYQQKPGQAPRLLIYDVSNRATGIPARFSGSGSGTDFTLTISSLEPEDFAVYYCQQRSNWPPVLTFGGGTKVEIKR
B2: the binding result is listed as “no binding (tested: 200 ng/ml)” in experiment [3] and “binds” in experiment [4].

B3: 0210-28K (antibody, V domains shown)
VH: QMQLVQSGPEVKKPGTSVKVSCKASGFTFSISAVQWVRQARGQRLEWIGWIVVGSGNTNYAQKFQERVTITRDMSTSTAYMELSSLRFEDTAVYYCAAPYCGGDCSDGFDIWGQGTMVTVSS
VL: not shown
For the molecule B3, in experiment [5], the “IC50, inhibition of pseudotype virus infection, 1st experiment” value is 0.0084 µg/mL and the “IC50, inhibition of pseudotype virus infection, 2nd experiment” value came to 0.0303 µg/mL. Also, in the experiment with SARS-CoV-2 spike protein [6], the IC50 is roughly 0.15 µg/mL.

B4: 1028-65K (antibody, V domains shown)
VH: QVQLVQSGAEVKKPGASVKVSCKASGYTFSSYYMHWVRQAPGQGLEWMGIINPSGGSTSYAQKFQGRVTMTRDTSTSTVYMELSSLRSEDTAVYFCAREGRAAAETDNNWFDPWGQGTLVTVSS
VL: not shown
As to B4, the binding result in experiment [2] and in experiment [3] was “no binding (tested: 200 ng/ml)” each time.

B5: 1028-37K (antibody, V domains shown)
VH: QVQLQQSGPGLVKPSQTLSLTCDISGDSVSSNSVAWNWIRQSPSRGLEWLGRTYYRSKWYNDYAVSVKSRITINPDTSKNQFSLQLNSVTPEDTAVYYCASGGYQLLYDDAFDIWGQGTMVTVSS
VL: not shown
On to B5, for which, in the experiment with SARS-CoV-2 spike protein [1], the half-maximal inhibitory concentration (IC50) is roughly 0.7 µg/mL. The values for the binding result in experiment [2] and in experiment [7] were “no binding (tested: 200 ng/ml)” and “binds”, respectively.

B6: 1028-164L (antibody, V domains shown)
VH: QVTLRESGPALVKPTQTLTLTCTFSGFSLSTSGMCVSWIRQPPGKALEWLALIDWDDDKYYSTSLKTRLTISKDTSKNQVVLTMTNMDPVDTATYYCARIPVEMATIGDYYYYGMDVWGQGTTVTVSS
VL: not shown
With B6, the binding result in experiment [3] is “no binding (tested: 200 ng/ml)”; in experiment [4], “binds”.

B7: 1028-62L (antibody, V domains shown)
VH: QVQLQESGPGLVKPSGTLSLTCAVSGGSISSSNWWSWVRQPPGKGLEWIGEIYHSGSTNYNPSLKSRVTISVDKSNNQFSLKLSSVTAADTAVYYCARGWNYDYWGQGTLVTVSS
VL: QSALTQPASVSGSPGQSITISCTGTSSDVGSYNLVSWYQQHPGKAPKLMIYEGSKRPSGVSNRFSGSKSGNTASLTISGLQAEDEADYYCCSYAGSSTWVFGGGTKLTVLG
With B7, the binding result was “no binding (tested: 200 ng/ml)” in experiment [3] and “binds” in experiment [4].

B8: 1028-05K (antibody, V domains shown)
VH: QVTLKESGPVLVKPTETLTLTCTVSGFSLSNARMGVSWIRQPPGKALEWLAHIFSNDEKSYSTSLKRRLTISKDTPKSQVVLTMTNMDPVDTATYYCARTLGFWSGEYYYYYMDVWGKGTTVTVSS
VL: EIVMTQSPATLSVSPGERATLSCRASQSVSSSYLAWYQQKPGQAPRLLIYGASTRATGIPARFSGSGSGTEFTLTISSLQSEDFAVYYCQHYNNWPPLFTFGPGTKVDIKR
Take B8: the IC50 with SARS-CoV-2 spike protein [1] was no less than 10 µg/mL. For the same molecule, the values for the binding result in experiment [2] and in experiment [7] were “no binding (tested: 200 ng/ml)” and “binds”, respectively.

B9: 1028-121K (antibody, V domains shown)
VH: B8 VH with N31D, S62N, R67S, P76S, T100A, E107Y
VL: not shown
In the case of B9, the concentration for half-maximal inhibition (IC50) with SARS-CoV-2 spike protein [1] was roughly 7.5 µg/mL. Besides, the binding result in experiment [2] was “no binding (tested: 200 ng/ml)”; in experiment [7], “binds”.

B10: 1028-55K (antibody, V domains shown)
VH: EVQLVESGGGLVQPGGSLRLSCAASGFIVSSNYMSWVRQAPGKGLEWVSLIYSGGSTYYVDSVKGRFTISRDNTKNTLYLQMNSLRAEDTAVYYCARDLDVRGALDIWGQGTMVIVSS
VL: not shown
As to B10, in the experiment with SARS-CoV-2 spike protein [1], the half-inhibitory concentration (IC50) is roughly 0.3 µg/mL. Moreover, the binding result in experiment [2] and in experiment [3] was “no binding (tested: 200 ng/ml)” in each case.

B11: 1028-137K (antibody, V domains shown)
VH: QVHLVESGGGVVQPGRSLRLSCAASGFTFNSYAMHWVRQAPGKGLEWVAVISYDGNNKYYADSVKGRFTISRDNSKNTLYLQMNSLRAEDTAVYYCARDDDSGSYLYYFDYWGQGTLVTVSS
VL: not shown
In the case of B11, the binding result is given as “no binding (tested: 200 ng/ml)” in experiment [3] and “binds” in experiment [4].

B12: 1028-106K (antibody, V domains shown)
VH: QLQLQESGPGLVKPSETLSLTCTVSGGSISSSYHYWGWIRQPPGKGLEWIGTIYYSGSTYYNPSLKSRVTISVDTSKNQFSLKLSSVTAADTAVYYCARRGYSYDSSGDGVDYWGQGTLVTVSS
VL: DIQMTQSPSSLSASVGDRVTITCRASQGIRNDLGWYQQKPGKAPKRLIYAASSLQSGVPSRFSGSGSGTEFTLTISSLQPEDFATYYCLQHNSYPLTFGGGTKVEIKR
Turning to B12, the binding result is “no binding (tested: 200 ng/ml)” in experiment [3] and “binds” in experiment [4].

B13: 1028-68L (antibody, V domains shown)
VH: QVQLVESGGGVVQPGRSLRLSCAASGFTFSSYAMHWVRQAPGKGLEWVAVISYDGSNKYYADSVKGRFTISRDNSKNTLYLQMNSLRAEDTAVYYCARADGSGWNYWGQGTLVTVSS
VL: SYELTQPPSVSVSPGQTARITCSGDPLPKQYAYWYQQKPGQAPVLVIYKDSERPSGIPERFSGSSSGTTVTLTISGVQAEDEADYYCQSADSSGTYGWEFGGGTKLTVLG
For B13, the binding result in experiment [2] and in experiment [3] was “no binding (tested: 200 ng/ml)” in each case.

B14: 1028-25K (antibody, V domains shown)
VH: QVQLVESGGGVVQPGRSLRLSCAASEFTFSGYAMHWVRQAPGKGLEWVAVISYDGINKYYADSVKGRFTISRDNSKNTLYLQMSSLRAEDTAVYYCARDPDYGDEGAFDYWGQGTLVTVSS
VL: not shown
Turning to B14, the binding result in experiment [2] and in experiment [3] was “no binding (tested: 200 ng/ml)” each time.

B15: 0210-30L (antibody, V domains shown)
VH: QVQLVQSGAEVKKPGSSVKVSCKASGGTFSSYAINWVRQAPGQGLEWMGRIIPILGRANYAQKFQGRVTITADKSTSTAYMELSSLRSEDTAVYYCARNPEEFSSSYVYYYYMDVWGKGTTVTVSS
VL: QSALTQPRSVSGSPGQSVTISCTGTSSDVGGYSYVSWYQQHPDKAPKLMIYDVSKRPSGVPDRFSGSKSGNTASLTISGLQAEDEADYYCCSYAGSYTSWVFGGGTKLTVLG
Take B15: the IC50 with SARS-CoV-2 spike protein [6] was roughly 0.2 µg/mL.

B16: 1028-30K (antibody, V domains shown)
VH: QVQLVQSGAEVKKPGSSVKVSCKASGGTFNTYAISWVRQAPGQGLEWMGGIIPIFGTANYAQKFQGRVTITADESTSTAYMELSSLRSEDTAVYYCARGEPGYCSGGNCYSSDYWGQGTLVTVSS
VL: not shown
Regarding B16, the binding result in experiment [2] and in experiment [3] was “no binding (tested: 200 ng/ml)” throughout.

B17: 1028-50K (antibody, V domains shown)
VH: EVQLVESGGGLVKPGGSLRLSCAASGFTFSSYIMNWVRQAPGKGLEWVSSISSSSYIYYADSVKGRFTISRDNAKNSLYLQMNSLRAEDTAVYYCARIVGATSYYYYGMDVWGQGTTVTVSS
VL: not shown
For B17, the binding result in experiment [2] and in experiment [3] was “no binding (tested: 200 ng/ml)” in each case.

B18: 1028-84K (antibody, V domains shown)
VH: QVQLVESGGGVVQPGRSLRLSCAASGFTFSNYAMHWVFQAPGMGLEWVAVISYDGINKYYADSVKGRFTISRDNSKNTLYLQMNSLRAEDTAVYYCASHRDDYVDSADAFDIWGQGTMVTVSS
VL: not shown
On to B18, for which the binding result in experiment [2] and in experiment [3] was “no binding (tested: 200 ng/ml)” in each case.

B19: 0210-38L (antibody, V domains shown)
VH: EVQLVESGGGLVQPGGSLRLSCAASGFTFNSYWMSWVRQAPGKGLEWVADIKQDGSEKYYVDSVKGRFTISRDNAKNSLYLQMNSLRAEDTAVYYCARQLYYYGPIDYWGQGTLVTVSS
VL: NFMLTQPHSVSESPGKTVTISCTRSSGSIASNYVQWYQQRPGSSPTTVIYEDNQRPSGVPDRFSGSIDSSSNSASLTISGLKTEDEADYYCQSYDSNNRVFGGGTKLTVLG
With B19, the IC50 with SARS-CoV-2 spike protein [6] is roughly 1.5 µg/mL.

B20: 1028-87L (antibody, V domains shown)
VH: not shown
VL: QAGLTQPPSVSKGLRQTATLTCTGNSNNVGNQGAAWLQQHQGHPPKLLSYRNNNRPSGISERLSASRSGNTASLTITGLQPEDEADYYCSAWDSSLSAQVFGGGTKLTVLG
As to B20, the binding result in experiment [2] and in experiment [3] was “no binding (tested: 200 ng/ml)” in each case.
